# Assay results as given in article PMC5413018, “Neuropeptide S (NPS) variants modify the signaling and risk effects of NPS Receptor 1 (NPSR1) variants in asthma” (PLoS ONE, 2017).
# Legend:
# NPSR1 = details: cited from earlier work
# Description: To compare the bioactivities of the two NPS variants, we measured the dose-responses of NPSR1-Ile(107) and NPSR1-Asn(107) coding variants to either wildtype NPS-Val(6) or alternative NPS-Leu(6) in a luciferase assay dependent on the activation of a cAMP-response element (CRE). This assay was used since elevation of the intracellular cAMP levels activates cAMP response element binding protein (CREB) via […]. Activated CREB binds to CRE and induces the expression of downstream target ...
# NPSR1-Ile(107) [1] = biological target: T1, NPSR1-Ile(107) (Homo sapiens, UniProt Q6W5P4, N107I); test: Real-time RT-PCR of NPSR1 downstream target genes in HEK293 cells, NPSR1-Ile(107); format: cell-based; design: expressed in transfected cells; host or cells: HEK293
# T1 sequence (Q6W5P4 1-371 N107I): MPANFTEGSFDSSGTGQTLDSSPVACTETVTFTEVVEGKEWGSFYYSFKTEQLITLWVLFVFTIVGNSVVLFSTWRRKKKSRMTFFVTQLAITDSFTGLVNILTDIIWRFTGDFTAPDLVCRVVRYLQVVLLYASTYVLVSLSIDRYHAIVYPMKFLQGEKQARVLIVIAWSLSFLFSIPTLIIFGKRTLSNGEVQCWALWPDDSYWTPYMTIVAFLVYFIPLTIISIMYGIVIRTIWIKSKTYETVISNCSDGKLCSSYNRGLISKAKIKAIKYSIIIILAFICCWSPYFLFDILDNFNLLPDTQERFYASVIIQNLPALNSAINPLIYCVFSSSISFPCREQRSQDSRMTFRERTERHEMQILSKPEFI
# Description: The activation of CRE results in transcriptional changes of downstream target genes. To examine whether the observed differences in the promoter activity also affected gene expression, we measured the effects of NPS variants on known NPSR1 downstream target genes. NR4A1 (nuclear receptor subfamily 4, group A, member 1), FOS (FBJ murine osteosarcoma viral oncogene homolog), and chemokine ligands CXCL2 and CCL20 were selected as they were among the most influenced genes after NPS stimulation and their expression also differed between transcriptome comparisons of HEK293 cells expressing either NPSR1-Ile(107) or NPSR1-Asn(107). In the present study, HEK293 cells transiently transfected with either NPSR1-Ile(107) or NPSR1-Asn(107) coding variants were stimulated with 100 nM of either NPS-Val(6) or NPS-Leu(6) for 1, 3, 6, and 24 h, and changes in gene expression were analyzed with RT-PCR.
# Fig 2 Real time RT-PCR analysis of NPSR1 downstream target genes. […] GAPDH was used as the endogenous reference, and data are expressed as mean of triplicate samples. […] In all experiments, results were calculated with the comparative Ct method.
# Human embryonic kidney cells (HEK293) were cultured in MEM+GlutaMAX-1 medium (Gibco/Invitrogen) supplemented with 10% fetal calf serum (FCS) (Biosera), 1% sodium pyruvate, 1% non-essential amino acids and 1% penicillin/streptomycin (Gibco/Invitrogen). […] The HEK293 cell line was chosen for ligand-receptor studies because it is a well-established model for addressing numerous questions in basic biology and is easy to transfect and amenable of stringent quantitative assessment. […]
# The mRNA expression was measured with qRT-PCR using either SYBR Green (for NR4A1, FOS, IER3, and EGR1, the primer sequences are given in S5 Table) or TaqMAN assay (Hs00601975 for CXCL2 Hs00601975, Hs01011368 for CCL20, Hs01036497 for NPSR1 and Pre-Developed TaqMAN Assay Reagents, Part No. 4310884 for GAPDH; Applied Biosystems). […]
# NPSR1-Ile(107) [2] = details: cell models; cited from earlier work
# Description: The functional NPSR1 SNP rs324981 (A>T), encoding a substitution of Asn(107)Ile in the putative ligand-binding pocket of NPSR1 [5], has shown associations with neuropsychiatric phenotypes, such as panic disorders, psychological stress, and fear responses. […] In cell models, the change of Asn(107) to Ile(107) results in 10-fold increase in NPS-mediated intracellular sign ... || A key strength of this study is the use of robust in vitro cell assays that allowed us to dissect the functional effects of coding NPS/NPSR1 variants on receptor signaling and downstream gene expression. Our cell assays confirmed that stimulation of cells transfected with either NPSR1-Asn(107) or NPSR-Ile(107) with the wildtype NPS-Val(6), induced CRE activity as described previously.
# [3] = HEK293 with NPSR1-Ile(107) or NPSR1-Asn(107), 100 nM NPS
substance,measurement,setting,value
"Neuropeptide S (SFRNGVGTGMKKTSFQRAKS; Neuropeptide S; UniProt P0C0P6 70-89, looked up) [NPS, Neuropeptide S, variant not specified at the place]",cAMP production on NPSR1 activation (in words),NPSR1,increasing cAMP production
same,downstream signaling in cells expressing NPSR1-Ile(107) vs NPSR1-Asn(107) (in words),"NPSR1-Ile(107) [1]; HEK293, 100 nM, compared with cells expressing NPSR1-Asn(107)",stronger downstream signaling
same,"time of mRNA induction of NR4A1, FOS and CXCL2",NPSR1-Ile(107) [1]; [3],1 h
same,time of up-regulation of CCL20 mRNA,NPSR1-Ile(107) [1]; [3],3 h
same,increase in NPS-mediated intracellular signaling on change of Asn(107) to Ile(107),NPSR1-Ile(107) [2],10 fold
